In one test the target is T1, huMUC16, AA13789-14451.
T1 construct: also called MUC16 Antigen (human MUC16 AA13789-14451)
T1 chain: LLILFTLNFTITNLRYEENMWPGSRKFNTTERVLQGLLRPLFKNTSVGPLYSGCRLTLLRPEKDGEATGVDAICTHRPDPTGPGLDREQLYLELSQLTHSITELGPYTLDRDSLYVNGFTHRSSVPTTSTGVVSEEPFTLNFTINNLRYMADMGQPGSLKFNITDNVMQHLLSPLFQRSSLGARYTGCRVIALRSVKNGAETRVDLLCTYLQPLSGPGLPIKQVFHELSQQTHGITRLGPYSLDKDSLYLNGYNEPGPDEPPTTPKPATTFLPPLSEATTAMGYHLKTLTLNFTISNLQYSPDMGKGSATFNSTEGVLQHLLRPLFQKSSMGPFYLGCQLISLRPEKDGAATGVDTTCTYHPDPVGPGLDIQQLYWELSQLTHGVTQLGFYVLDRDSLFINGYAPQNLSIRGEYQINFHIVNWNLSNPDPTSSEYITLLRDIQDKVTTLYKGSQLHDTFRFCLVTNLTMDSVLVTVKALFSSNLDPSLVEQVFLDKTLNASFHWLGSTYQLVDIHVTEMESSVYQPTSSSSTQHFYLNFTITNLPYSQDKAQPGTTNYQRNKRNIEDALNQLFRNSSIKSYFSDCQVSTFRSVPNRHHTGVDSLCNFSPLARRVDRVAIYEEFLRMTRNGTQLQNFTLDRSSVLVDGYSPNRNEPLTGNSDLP
Briefly: binding ELISA on huMUC16 AA13789-14451. Background: An ELISA detects its analyte on a solid surface through an enzyme-linked reagent.

Test [1] concerns the target T2, human MUC16 on cells (human, UniProt Q8WXI7 1-14507).
T2 construct: whole, on cells; also called huMUC16; MUC16 on OVCAR3 and SNU216 cells
Briefly: flow cytometry (GMFI) on OVCAR3 cells, nM is the unit of the x axis Log10[Ab] (nM); curve without upper plateau. For orientation: In flow cytometry, cells or beads pass a laser one at a time.

A further test concerns the target T3, huMUC16, AA14198-14507.
T3 chain: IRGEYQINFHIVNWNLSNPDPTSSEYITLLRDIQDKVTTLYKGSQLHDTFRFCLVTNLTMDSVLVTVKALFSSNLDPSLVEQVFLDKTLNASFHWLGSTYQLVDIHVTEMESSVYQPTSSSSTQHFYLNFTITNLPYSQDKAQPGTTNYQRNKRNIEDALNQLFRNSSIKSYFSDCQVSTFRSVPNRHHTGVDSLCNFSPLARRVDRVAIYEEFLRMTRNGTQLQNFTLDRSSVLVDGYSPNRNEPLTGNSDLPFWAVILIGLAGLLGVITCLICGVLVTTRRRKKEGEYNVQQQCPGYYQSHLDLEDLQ
Briefly: binding ELISA on huMUC16 AA14198-14507.

A further test addresses T4, ROR1 on cells (UniProt Q01973 30-937).
T4 construct: whole, on cells; also called ROR1 endogenous expressed tumor cell A549; ROR1-positive tumor cell lines
Briefly: flow cytometry (gMFI) on A549 cells.

In test [2] the target is T2, human MUC16 on cells. The experiment in a line: flow cytometry (MFI GeoMean) on OVCAR3 cells, nM is the unit of the x axis Log10[Ab] (nM).
A further test addresses T5, human MUC16 (human).
T5 construct: also called MUC16 antigen of the kinetic assay
The experiment in a line: binding kinetics, sensorgrams in RU in FIG. 14B, model printed: Kinetics 1:1; form of the MUC16 antigen not given.

The target of test [3] is T2, human MUC16 on cells. The experiment in a line: flow cytometry (GMFI) on OVCAR3 cells, nM is the unit of the x axis Log10[Ab] (nM).
Test [4] has as its target T6, HEK293-MUC16 (13810-14507) (human, UniProt Q8WXI7 13810-14507).
T6 construct: range 13810-14507; also called MUC16 overexpressed HEK293 cells
T6 sequence: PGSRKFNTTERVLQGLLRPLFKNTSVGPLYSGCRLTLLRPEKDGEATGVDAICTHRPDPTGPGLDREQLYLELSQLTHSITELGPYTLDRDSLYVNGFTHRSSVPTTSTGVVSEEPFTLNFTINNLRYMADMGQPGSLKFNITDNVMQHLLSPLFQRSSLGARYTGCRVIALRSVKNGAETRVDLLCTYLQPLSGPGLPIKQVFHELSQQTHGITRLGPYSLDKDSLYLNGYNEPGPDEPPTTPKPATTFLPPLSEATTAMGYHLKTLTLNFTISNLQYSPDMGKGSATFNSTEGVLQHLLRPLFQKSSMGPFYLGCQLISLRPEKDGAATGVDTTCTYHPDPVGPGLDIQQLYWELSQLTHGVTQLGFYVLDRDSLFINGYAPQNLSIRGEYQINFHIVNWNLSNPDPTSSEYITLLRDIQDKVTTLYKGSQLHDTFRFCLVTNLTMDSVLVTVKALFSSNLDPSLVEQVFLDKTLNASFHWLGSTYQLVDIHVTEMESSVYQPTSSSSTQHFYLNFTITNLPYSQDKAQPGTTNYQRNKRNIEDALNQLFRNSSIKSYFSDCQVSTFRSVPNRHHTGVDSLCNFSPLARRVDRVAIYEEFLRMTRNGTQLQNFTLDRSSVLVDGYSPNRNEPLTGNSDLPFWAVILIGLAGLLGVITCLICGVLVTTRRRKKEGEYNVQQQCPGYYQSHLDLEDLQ
Briefly: flow cytometry (MFI GeoMean) on HEK293-MUC16 (13810-14507) cells, nM is the unit of the x axis Log10[Ab] (nM).

Test [5] has as its target T2, human MUC16 on cells. The experiment in a line: flow cytometry (MFI GeoMean) on SNU216 cells, nM is the unit of the x axis Log10[Ab] (nM).
The target in test [6] is T2, human MUC16 on cells. Briefly: flow cytometry (GMFI) on OVCAR3 cells, nM is the unit of the x axis Log10[Ab] (nM); curve without upper plateau. This is another data set of the same source.

The term EC50 denotes the concentration needed to bring the measured effect to its halfway point. The low end stands for a more potent agent, the high end for a less potent agent. In general, EC50 (read off the curve) refers to the concentration needed to bring the measured effect to its halfway point. High values mean weaker potency, low ones greater potency. By Kd is commonly meant the constant that tells how readily two partners part at equilibrium. Low values mean higher affinity, high ones lower affinity. In general, koff refers to a measure of how fast the partners let go of each other. The kon is a measure of how fast the partners come together.

B1: B76 (antibody, V domains shown)
VH: QMQLVQSGAEVKKPGSSVKVSCKASGGTFSSYAISWVRQAPGQGLEWMGGIIPIFGTANYAQKFQGRVTITADESTSTAYMELSSLRSEDTAVYYCARSITDYYDSSGYYFRPHFNTGYYYGMDVWGQGTTVTVSS
VL: NIQLTQSPSSLSASVGDRVTITCRASQGINNYLAWYQQKPGKVPKLLIYAASTLQSGVPSRFSGSGSGTDFTLTITNLQPDDFATYYCQQYDTFSETFGPGTKVEIK
notes: Anti-MUC16 mAb
In the case of B1, the binding result in the test with huMUC16, AA13789-14451 is “binds”; with huMUC16, AA14198-14507, “no binding (tested: 100 nM)”. The molecule also yielded a 50% effective concentration (EC50) with human MUC16 on cells [1] of 16.8 nM.

B2: 3C5 (antibody, V domains shown)
VH: EVKLVESGGGLVKPGGSLKLSCAASGFTFSSYAMSWVRQTPEKRLEWVSSISSGGTTYYPDTVKGRFTISRDNARNILYLQMSSLRSEDTAMYYCARDSLYYGSSLYYAMDYWGQGTSVTVSS
VL: DIKMTQSPSSMYASLGERVSITCRASQDIYSYLSWFQQKPGKSPKTLIYRANRLVDGVPSRFSGSGSGQDYSLTISSLEYEDMGIYYCLQYDEFPYTFGGGTKLEIK
notes: Anti-ROR1 mAb (chimeric section 9.1); also called anti-ROR1 mAb 3C5
With B2, the concentration giving a half-maximal response (EC50 (read off the curve)) with ROR1 on cells was approximately 0.04 nM.

B3: B195 (antibody, V domains shown)
VH: EVQLVQSGAEVKKPGASVKVSCKASGGTFSSYAISWVRQAPGQGLEWMGGIIPIFGTANYAQKFQGRVTITADESTSTAYMELSSLRSEDTAVYYCAREGPDYGDYSWSMDYYYGMDVWGQGTMVTVSS
VL: EIVMTQSPGTLSLSPGERATLSCRASQSVNSRYLAWYQHKPGQAPRLLMYGASTRATGIPDRFSGSGSGTDFTLTISRLEPEDFAVYYCQQYGTFSITFGQGTRLEIK
notes: Anti-MUC16 mAb
Regarding B3, the binding result with huMUC16, AA13789-14451 is recorded as “binds”; with huMUC16, AA14198-14507, “no binding (tested: 100 nM)”. This molecule displayed an EC50 with human MUC16 on cells [1] of 15.1 nM.

B4: D57 (antibody, V domains shown)
VH: EVQLLESGGGLVTPGGSLRLSCTASGFTFSDYYLSWVRQAPGKGLEWMGGIIPIFGTANYAQKFQGRVTITADESTSTAYMELSSLRSEDTAVYYCARGGPHYDFWSGYTPGQHGGAFDIWGQGTMVTVSS
VL: EIVLTQSPGTLSLSPGERATLSCRASQSVSSSYLAWYQQKPGQAPRLLIYGASSRATGIPDRFSGSGSGTDFTLTISRLEPEDFAVYYCQQRSNWRNTFGQGTRLEIK
notes: Anti-MUC16 mAb; also called MUC16-D57
Take B4: the EC50 with human MUC16 on cells [2] is 0.763 nM; with human MUC16 on cells [3], 0.526 nM; in [4], 0.579 nM; in the test with human MUC16 on cells [5], 1.24 nM. Besides, binding with human MUC16 was characterised by a dissociation constant (Kd) of 5.26 nM. In addition, in the test with human MUC16, the koff was 0.0035 s⁻¹.

B5: D79 (antibody, V domains shown)
VH: QMQLVQSGAEVKKPGSSVKVSCKASGGTFSSYAISWVRQAPGQGLEWMGGIIPIFGTANYAQKFQGRVTITADESTSTAYMELSSLRSEDTAVYYCARDSGSSITMVRGGDYYYMDVWGKGTTVTVSS
VL: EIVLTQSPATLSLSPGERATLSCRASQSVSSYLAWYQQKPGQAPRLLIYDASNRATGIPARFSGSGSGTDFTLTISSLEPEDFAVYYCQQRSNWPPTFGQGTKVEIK
notes: Anti-MUC16 mAb
Regarding B5, the binding result is reported as “binds” with huMUC16, AA13789-14451 and “no binding (tested: 100 nM)” in the test with huMUC16, AA14198-14507. In addition, the midpoint of the response in the test with human MUC16 on cells [1], the EC50, lay at 40.6 nM.

B6: B218 (antibody, V domains shown)
VH: EVQLLESGAEVKKPGSSVKVSCKASGGTFSSYAISWVRQAPGQGLEWMGGIIPIFGTANYAQKFQGRVTITADESTSTAYMELSSLRSEDTAVYYCARGGPHYDFWSGYTPGQHGGAFDIWGQGTMVTVSS
VL: NIQMTQSPSTLSASLGDRVSITCRASQSISGWLAWYQQKPGKAPKLLIYRTSYLESGVPSRFSAGGSGTEFTLTISSLQPDDFATYYCQHYDTFSRAFGQGTKVDIK
notes: Anti-MUC16 mAb; also called MUC16-B218
As for B6, the EC50 with human MUC16 on cells [2] was 0.907 nM; in the test with human MUC16 on cells [3], 0.687 nM; in [4], 0.244 nM; with human MUC16 on cells [5], 0.76 nM. Besides, in the test with human MUC16, the Kd came to 6.17 nM. Further, the off-rate constant (koff) with human MUC16 came to 0.0031 s⁻¹. The same molecule came in with a kon in the test with human MUC16 of 502000 M⁻¹ s⁻¹. Besides, the binding result in the test with huMUC16, AA13789-14451 is “binds”; in the test with huMUC16, AA14198-14507, “no binding (tested: 100 nM)”.

B7: D100 (antibody, V domains shown)
VH: QVQLVQSGAEVKKPGSSVKVSCKASGGTFSRYHAISWVRQAPGQGLEWMGGIIPILGTANYAQKFQGRVTITADESTSTAYMELSSLRSEDTAVYYCASGTTAARYYYYYYYMDVWGKGTTVTVSS
VL: NIQMTQSPSSLSASVGDRVTITCQASQDISNYLNWFHQKPGKAPNLLIYDASNLETGVPSRFSGSGSGTDFTFTISSLQPEDIGTYYCQQYDNLPLTFGGGTKVDIK
notes: Anti-MUC16 mAb; also called MUC16-D100
With B7, the EC50 with human MUC16 on cells [2] was found to be 0.286 nM; with human MUC16 on cells [3], 0.395 nM; in test [4] it was 0.0874 nM; with human MUC16 on cells [5] it was 0.12 nM. Also, the binding result with huMUC16, AA13789-14451 is given as “binds”; in the test with huMUC16, AA14198-14507 it was “no binding (tested: 100 nM)”.

B8: humanized 3C5 anti-ROR1 mAb (antibody, V domains shown)
VH: EVQLVESGGGLVKPGGSLRLSCAASGFTFSSYAMSWVRQAPGKRLEWVSSISSGGTTYYPDTVKGRFTISRDNAKNSLYLQMNSLRAEDTAVYYCARDALYYGSSLYYAMDYWGQGTLVTVSS
VL: DIQMTQSPSSLSASVGDRVTITCRASQDIYSYLSWFQQKPGKAPKTLIYRANRLVDAVPSRFSGSGSGQDYTLTISSLQPEDFATYYCLQYDEFPYTFGQGTKLEIK
notes: also called h3C5; h3C5-PTM
Regarding B8, the half-maximal effective concentration (EC50 (read off the curve)) with ROR1 on cells was approximately 0.04 nM.

B9: D41 (antibody, V domains shown)
VH: EVQLLESGGGLVQPGGSLRLSCAASGFTFSSYEMNWVRQAPGKGLEWVGRIKSKTDGGTTDYAAPVKGRFTISRDDSKNTLYLQMNSLKTEDTAVYYCTTDLAAVAGLFDYWGQGTTVTVSS
VL: DIQLTQSPSSLSASVGDRVTITCQASQDISNYLNWYQQKPGKAPKLLIYDASNLETGVPSRFSGSGSGTDFTLTISSLQPEDFATYYCQQSYSTPWKFGQGTKVEIK
notes: Anti-MUC16 mAb
As to B9, the binding result in the test with huMUC16, AA13789-14451 is given as “binds”; in the test with huMUC16, AA14198-14507, “no binding (tested: 100 nM)”. Besides, it took 23.1 nM to reach a half-maximal effect with human MUC16 on cells [6] (EC50).

For the origin of these results see US20260078196A1 (TJ BIOPHARMA SHANGHAI, published 2026).
